# According to paper PMC11648224, “RNA G-quadruplexes and calcium ions synergistically induce Tau phase transition in vitro”:
# Target: Tau (Tau441, 2N4R) (human, UniProt P10636-8 1-441)
# Assay: SPR; 10 mM KCl; SPR (OpenSPR): 50 mM Tris-HCl pH 7.4, 10 mM KCl; biotin-RNA on streptavidin chip, 20 ul/min, 1:1 fit; temperature not stated
# Settings: protein: recombinant, tags: none stated (pET23a-human Tau441)
# Sequence of Tau (Tau441, 2N4R) (P10636 other isoform, or with tags, fused parts or gaps): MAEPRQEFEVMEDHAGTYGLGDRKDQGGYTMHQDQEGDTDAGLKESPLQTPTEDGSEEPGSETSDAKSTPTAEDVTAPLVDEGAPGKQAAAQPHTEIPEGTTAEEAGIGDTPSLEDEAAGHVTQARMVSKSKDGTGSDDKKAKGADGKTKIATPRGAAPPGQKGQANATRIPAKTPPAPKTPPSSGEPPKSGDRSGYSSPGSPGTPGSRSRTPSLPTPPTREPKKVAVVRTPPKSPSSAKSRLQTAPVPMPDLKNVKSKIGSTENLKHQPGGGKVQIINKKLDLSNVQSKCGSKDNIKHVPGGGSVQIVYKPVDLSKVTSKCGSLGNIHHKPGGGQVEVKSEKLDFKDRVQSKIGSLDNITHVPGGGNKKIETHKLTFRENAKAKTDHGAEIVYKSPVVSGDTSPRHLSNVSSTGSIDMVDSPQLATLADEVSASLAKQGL
Binder,Kd (RNA G-quadruplex) [nM],Kd [nM]
UUAGGGUUAGGGUUAGGGUUAGGG (structured_RNA) [G4tr r(UUAGGG)4],32.1 ± 8.38,
UUACCGUUACCGUUACCGUUACCG (ssRNA) [G4mt r(UUACCG)4],,52.5 ± 14.3
CAGCAGCAGCAGCAGCAGCAGCAG (ssRNA) [r(CAG)8],,57.3 ± 13.9
AAAAAAAAAAAAAAAAAAAAAAAA (ssRNA) [r(AAA)8],,71.7 ± 27
